Assay results from PMC9879077.
Read-outs that look alike come from different tables or passages of the source.

How the values were obtained:
c-Fos;c-Jun [1] = molecular target: T1, c-Fos;c-Jun (mouse (cDNA from ST2 cells);mouse (cDNA …, UniProt P01101;P05627 1-380;1-334, |)); experiment: EMSA
c-Fos;c-Jun [2] = molecular target: T1, c-Fos;c-Jun; experiment: EMSA; remark: listed apart in the source

T1 sequence (P01101 whole entry, chain 1 of 2): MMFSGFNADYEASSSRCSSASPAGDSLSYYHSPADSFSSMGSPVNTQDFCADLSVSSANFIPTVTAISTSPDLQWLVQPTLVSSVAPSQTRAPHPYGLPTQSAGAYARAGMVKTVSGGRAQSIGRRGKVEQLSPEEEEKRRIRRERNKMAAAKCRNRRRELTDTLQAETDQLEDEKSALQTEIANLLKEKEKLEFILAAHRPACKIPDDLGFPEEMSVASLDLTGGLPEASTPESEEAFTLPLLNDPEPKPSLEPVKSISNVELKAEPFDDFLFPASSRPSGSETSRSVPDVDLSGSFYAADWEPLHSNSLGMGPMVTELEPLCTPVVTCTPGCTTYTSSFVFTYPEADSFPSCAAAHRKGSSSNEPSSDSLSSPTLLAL
T1 sequence (P05627 whole entry, chain 2 of 2): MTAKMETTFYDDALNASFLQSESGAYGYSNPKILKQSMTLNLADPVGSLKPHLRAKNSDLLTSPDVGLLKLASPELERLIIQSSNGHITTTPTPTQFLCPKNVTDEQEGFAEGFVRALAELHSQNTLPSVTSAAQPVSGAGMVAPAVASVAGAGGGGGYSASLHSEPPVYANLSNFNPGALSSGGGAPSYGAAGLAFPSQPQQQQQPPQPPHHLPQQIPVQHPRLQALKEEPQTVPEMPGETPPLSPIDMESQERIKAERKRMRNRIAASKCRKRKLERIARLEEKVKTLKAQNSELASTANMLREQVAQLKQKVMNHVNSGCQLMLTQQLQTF

B1: Oligo incl TRE (dsDNA)
DNA 1: TGAGTCAATGAGTCAGCTGACTCATTGACTCA
DNA 2: GGTGAGTCAATGAGTCAGCTGACTCATTGACTCA
c-Fos;c-Jun [1]
  binding result: binds

B2: Oligo incl mutant TRE (dsDNA)
DNA 1: TGTGACAATGTGACAGCTGTCACATTGTCACA
DNA 2: GGTGTGACAATGTGACAGCTGTCACATTGTCACA
c-Fos;c-Jun [2]
  binding result: no binding
